# T1: KAE1 K202R;BUD32;CGI121;PCC1 (Arabidopsis thaliana;Arabidopsis …, UniProt O49653;Q94K14;Q6NMZ4;Q8GWD7 1-353;1-226;1-172;1-96, K202R|||)
# T1 sequence 1: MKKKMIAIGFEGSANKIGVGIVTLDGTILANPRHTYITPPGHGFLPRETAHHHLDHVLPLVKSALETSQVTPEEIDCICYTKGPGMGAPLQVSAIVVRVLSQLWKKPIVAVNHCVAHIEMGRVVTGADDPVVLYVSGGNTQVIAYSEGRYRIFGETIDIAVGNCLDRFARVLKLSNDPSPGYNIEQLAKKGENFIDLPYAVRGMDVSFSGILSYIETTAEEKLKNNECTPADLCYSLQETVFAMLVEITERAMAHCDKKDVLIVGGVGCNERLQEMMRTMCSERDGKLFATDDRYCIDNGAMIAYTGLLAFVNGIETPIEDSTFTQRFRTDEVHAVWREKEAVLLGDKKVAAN
# T1 sequence 2: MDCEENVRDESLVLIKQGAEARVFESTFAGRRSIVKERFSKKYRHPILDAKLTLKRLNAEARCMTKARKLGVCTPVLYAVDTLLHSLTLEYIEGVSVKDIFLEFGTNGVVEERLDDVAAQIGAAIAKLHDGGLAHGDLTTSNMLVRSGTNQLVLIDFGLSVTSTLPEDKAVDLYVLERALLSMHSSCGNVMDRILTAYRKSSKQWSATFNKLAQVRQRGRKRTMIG
# T1 sequence 3: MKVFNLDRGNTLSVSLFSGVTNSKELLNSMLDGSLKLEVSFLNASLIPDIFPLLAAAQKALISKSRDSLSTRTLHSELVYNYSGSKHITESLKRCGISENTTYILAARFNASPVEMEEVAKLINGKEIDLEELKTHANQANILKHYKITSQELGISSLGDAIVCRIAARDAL
# T1 sequence 4: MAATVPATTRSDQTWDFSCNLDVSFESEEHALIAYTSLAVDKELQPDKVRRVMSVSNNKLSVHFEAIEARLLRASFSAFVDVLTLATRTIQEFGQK
# T2: KAE1 Y305A;BUD32;CGI121;PCC1 (Arabidopsis thaliana;Arabidopsis …, UniProt O49653;Q94K14;Q6NMZ4;Q8GWD7 1-353;1-226;1-172;1-96, Y305A|||)
# T2 sequence 1: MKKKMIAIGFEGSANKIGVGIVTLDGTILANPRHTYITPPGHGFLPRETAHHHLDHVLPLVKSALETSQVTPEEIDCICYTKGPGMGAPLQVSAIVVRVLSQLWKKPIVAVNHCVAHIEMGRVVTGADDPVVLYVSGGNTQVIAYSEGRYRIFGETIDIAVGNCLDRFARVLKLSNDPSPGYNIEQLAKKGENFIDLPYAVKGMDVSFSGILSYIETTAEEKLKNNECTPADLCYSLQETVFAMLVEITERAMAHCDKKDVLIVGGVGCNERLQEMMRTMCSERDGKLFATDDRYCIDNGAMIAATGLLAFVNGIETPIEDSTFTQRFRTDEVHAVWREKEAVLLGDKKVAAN
# T2 sequence 2: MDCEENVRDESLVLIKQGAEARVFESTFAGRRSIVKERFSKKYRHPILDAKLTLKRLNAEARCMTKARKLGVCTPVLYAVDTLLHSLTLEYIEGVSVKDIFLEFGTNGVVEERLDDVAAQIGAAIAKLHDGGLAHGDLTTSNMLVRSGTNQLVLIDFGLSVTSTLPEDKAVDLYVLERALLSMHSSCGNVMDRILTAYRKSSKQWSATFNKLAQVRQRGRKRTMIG
# T2 sequence 3: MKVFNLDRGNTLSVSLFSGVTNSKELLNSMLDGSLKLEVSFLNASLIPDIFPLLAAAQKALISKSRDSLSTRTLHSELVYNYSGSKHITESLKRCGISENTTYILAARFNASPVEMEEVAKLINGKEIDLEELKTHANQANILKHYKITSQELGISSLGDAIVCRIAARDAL
# T2 sequence 4: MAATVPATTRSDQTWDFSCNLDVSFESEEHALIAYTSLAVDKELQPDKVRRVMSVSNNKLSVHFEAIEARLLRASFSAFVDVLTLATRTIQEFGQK
# Experiments:
# [1] = target: T1, KAE1 K202R;BUD32;CGI121;PCC1; assay: EMSA; 1:5 RNA:protein; MST: 20 mM PBS pH 7.5, 300 mM NaCl, 0.05% Tween 20, 25 C, 50 nM RNA; EMSA: 20 mM Tris-HCl pH 7.5, 300 mM NaCl, 5 mM b-mercaptoethanol, 20% glycerol, agarose gel in Tris-glycine pH 8.0 (8.5 for FAM-RNA), 4 C; conditions: protein: recombinant;recombinant;recombinant;recombinant; tags: ;none (6His on partner CGI121);6His (C-term);6His (C-term); chain copies: 2;2;2;2; label: 5' 6-FAM; tRNA cloverleaf
# [2] = target: T2, KAE1 Y305A;BUD32;CGI121;PCC1; assay: as above; conditions: protein: recombinant;recombinant;recombinant;recombinant; tags: ;none (6His on partner CGI121);6His (C-term);6His (C-term); chain copies: 2;2;2;2; label: 5' 6-FAM; tRNA cloverleaf
binder,measurement,setting,value
5'-6FAM-tRNAArgCCU (structured_RNA) RNA: GCGCCUGUAGCUCAGUGGAUAGAGCGUCUGUUUCCUAAGCAGAAGGUCGUAGGUUCGACCCCUACCUGGCGCGCCA,binding result,[1],binds
same,binding result,[2],binds
